# The DeepSol protein solubility set
# Assay: soluble on expression in E. coli; label from the status in PepcDB or PDB records
row,Sequence,soluble on expression in E. coli
1,VADRLIVKGAREHNLRSVDLDLPRDALIVFTGLSGSGKSSLAFDTIFAEGQRRYVESLSAYARQFLGQMDKPDVDFIEGLSPAVSIDQKSTNRNPRSTVGTITEVYDYLRLLYARAGTPHCPTCGERVARQTPQQIVDQVLAMPEGTRFLVLAPVVRTRKGEFADLFDKLNAQGYSRVRVDGVVHPLTDPPKLKKQEKHDIEVVVDRLTVKAAAKRRLTDSVETALNLADGIVVLEFVDHELGAPHREQRFSEKLACPNGHALAVDDLEPRSFSFNSPYGACPECSGLGIRKEVDPELVVPDPDRTLAQGAVAPWSNGHTAEYFTRMMAGLGEALGFDVDTPWRKLPAKARKAILEGADEQVHVRYRNRYGRTRSYYADFEGVLAFLQRKMSQTESEQMKERYEGFMRDVPCPVCAGTRLKPEILAVTLAGESKGEHGAKSIAEVCELSIADCADFLNALTLGPREQAIAGQVLKEIRSRLGFLLDVGLEYLSLSRAAATLSGGEAQRIRLATQIGSGLVGVLYVLDEPSIGLHQRDNRRLIETLTRLRDLGNTLIVVEHDEDTIEHADWIVDIGPGAGEHGGRIVHSGPYDELLRNKDSITGAYLSGRESIEIPAIRRSVDPRRQLTVVGAREHNLRGIDVSFPLGVLTSVTGVSGSGKSTLVNDILAAVLANRLNGARQVPGRHTRVTGLDYLDKLVRVDQSPIGRTPRSNPATYTGVFDKIRTLFAATTEAKVRGYQPGRFSFNVKGGRCEACTGDGTIKIEMNFLPDVYVPCEVCQGARYNRETLEVHYKGKTVSEVLDMSIEEAAEFFEPIAGVHRYLRTLVDVGLGYVRLGQPAPTLSGGEAQRVKLASELQKRSTGRTVYILDEPTTGLHFDDIRKLLNVINGLVDKGNTVIVIEHNLDVIKTSDWIIDLGPEGGAGGGTVVAQGTPEDVAAVPASYTGKFLAEVVGGGASAATSRSNRRRNVSA,not soluble
2,MAHHHHHHMDVSQFLKSFKKNVAAKSKRSSSVRQSDEAANSGAEEDVTEIFHSASDSEADGEAEDGEVILGGRADKMAGKRYTRNMDHSKRNREFAALKVVETNSVPAVEAGRFQRQRAALARQATDARKPPRTEMIASVRAELLRQREKLRGSNALDSANQLDASVQKMETTMIEVEDLLQASAPTAATSASVLDFLPAAPLPAPRQATLTTASRAASIAVALSEPQPPSSSVTNGRAGTPTVNDPALEEPPKLPKKRTKFELAMAMAHDEVAS,not soluble
3,GPGSDVFFSGYLNKLKGGDNHSWKKRYLQVQKGHFIMSDKESDTEGKALSLEHIQSVCPVPVSTAKREHVFALHTTSGKSMWFEAASLENMEEWIHAIQCGLGVA,soluble
4,MKLKHLDKLLAHCHRRRYTAKSTIIYAGDRCETLFFIIKGSVTILIEDDDGREMIIGYLNSGDFFGELGLFEKEGSEQERSAWVRAKVECEVAEISYAKFRELSQQDSEILYTLGSQMADRLRKTTRKVGDLAFLDVTGRVARTLLDLCQQPDAMTHPDGMQIKITRQEIGRIVGCSREMVGRVLKSLEEQGLVHVKGKTMVVFGTR,soluble
5,MNTLMTQIHELQHVAHELLYLGADGSPIYTDSFRQLNTEVLQKSDALFALKGENPEEEARLCLALLMGYNATIYDYGDKESKKQVILDRSLLVLESLPSSLLKCQLLTYCYGEVFEEELAKEAHAIIDYWDNKTLSIDEQETVDMLKMIEENQYPNNYID,not soluble
6,MKGVSRHVFVRIVQAIIMKHLVYCFKLDNDEFNLKNKYKKYKPCVTRVYDDLNTIYRYISNNKIINLEHHHHHH,not soluble
7,KIVAVTACPTGIAHTYMAADALMKAAPKHNVQIKVETQGAMGIENQLTPHDIAQADRVLIVSDIEIEQPGRFEGTRKIQIPIEEVLLNVDKVFL,not soluble
8,MGSDKIHHHHHHMTAPRELTAETRCGSSMDSSPPTATDDINSADIALRVSALSKTYRIYGRSQDRLLQGLWGNRKQLYREFRALDSISFEIRRGETFGIIGPNGSGKSTLLQLIAGTLTPTQGEIYIKGKVSALLELGAGFNGEFTGRENIRMAASIAGLNPGEIGQRHECIAAYADIGDFLDQPVKTYSSGMYVRLAFAVAISVEPEVLIIDEALAVGDMEFQAKCMVTLKQMQERGTTILFVSHDVGAVSALCKRTLYLKHGRALEIGPTPDVVARYIREVQEANNRKINVTVSENNDSRTTSPSDASETGIAPSHRTASLTSAEAASGAASGFLTAASPFRSVEKKHLARFAENANHCRSGTGDVRVIYAEMTDDEGLPVRSAEFGQSVLIRIIVEAARTCTFSVNYKICDKNRTPVIGADFLMQRQALLTLEPSQQAEALYRTSLPLTDGRYSLRISLTHPVNAHQQALFFDIVEIAHVFEVLPNPTAKFWTQVYLPNTLDVRVLE,not soluble
